Results on 1 substance are retold here after PMC10505919.

By Kd is commonly meant the constant that tells how readily two partners part at equilibrium. Low readings indicate a tighter complex, high ones a looser complex.

This assay deals with Chlamydomonas reinhardtii RabL2, wild type (Chlamydomonas reinhardtii). The assay can be described thus: ITC. (In ITC the heat of successive injections is recorded.)

Regarding “Chlamydomonas reinhardtii CEP19 residues 1-208 (domain or fragment)”, the Kd worked out at 12.7 µM.
